Target: MavC (residues 1–385, [change]) (Legionella pneumophila, UniProt Q5ZTL4 1-385)
Assay: crystal structure
Settings: both partners purified

B1: UBE2N (K94A), the UBE2N moiety of the conjugated UBE2N~Ub (enzyme)
chain: MAGLPRRIIKETQRLLAEPVPGIKAEPDESNARYFHVVIAGPQDSPFEGGTFKLELFLPEEYPMAAPKVRFMTKIYHPNVDKLGRICLDILKDAWSPALQIRTVLLSIQALLSAPNPDDPLANDVAEQWKTNEAQAIETARAWTRLYAMNNI
notes: UBE2N, human E2 enzyme
**Q.** Does B1 bind?
**A.** Result: binds

From publication PMC7265302 (Nature Communications, 2020)
